Results published in patent publication US20240092889A1 (Chugai, published 2024).
Values belong to the binder of their own block, whether it stands above or below them.

B5: recombinant human C1r2s2 tetramer (other)
chain 1: EPTMYGEILSPNYPQAYPSEVEKSWDIEVPEGYGIHLYFTHLDIELSENCAYDSVQIISGDTEEGRLCGQRSSNNPHSPIVEEFQVPYNKLQVIFKSDFSNEERFTGFAAYYVATDINECTDFVDVPCSHFCNNFIGGYFCSCPPEYFLHDDMKNCGVNCSGDVFTALIGEIASPNYPKPYPENSRCEYQIRLEKGFQVVVTLRREDFDVEAADSAGNCLDSLVFVAGDRQFGPYCGHGFPGPLNIETKSNALDIIFQTDLTGQKKGWKLRYHGDPMPCPKEDTPNSVWEPAKAKYVFRDVVQITCLDGFEVVEGRVGATSFYSTCQSNGKWSNSKLKCQPVDCGIPESIENGKVEDPESTLFGSVIRYTCEEPYYYMENGGGGEYHCAGNGSWVNEVLGPELPKCVPVCGVPREPFEEKQRIIGGSDADIKNFPWQVFFDNPWAGGALINEYWVLTAAHVVEGNREPTMYVGSTSVQTSRLAKSKMLTPEHVFIHPGWKLLEVPEGRTNFDNDIALVRLKDPVKMGPTVSPICLPGTSSDYNLMDGDLGLISGWGRTEKRDRAVRLKAARLPVAPLRKCKEVKVEKPTADAEAYVFTPNMICAGGEKGMDSCKGDSGGAFAVQDPNDKTKFYAAGLVSWGPQCGTYGLYTRVKNYVDWIMKTMQENSTPRED
chain 2: SIPIPQKLFGEVTSPLFPKPYPNNFETTTVITVPTGYRVKLVFQQFDLEPSEGCFYDYVKISADKKSLGRFCGQLGSPLGNPPGKKEFMSQGNKMLLTFHTDFSNEENGTIMFYKGFLAYYQAVDLDECASRSKLGEEDPQPQCQHLCHNYVGGYFCSCRPGYELQEDRHSCQAECSSELYTEASGYISSLEYPRSYPPDLRCNYSIRVERGLTLHLKFLEPFDIDDHQQVHCPYDQLQIYANGKNIGEFCGKQRPPDLDTSSNAVDLLFFTDESGDSRGWKLRYTTEIIKCPQPKTLDEFTIIQNLQPQYQFRDYFIATCKQGYQLIEGNQVLHSFTAVCQDDGTWHRAMPRCKIKDCGQPRNLPNGDFRYTTTMGVNTYKARIQYYCHEPYYKMQTRAGSRESEQGVYTCTAQGIWKNEQKGEKIPRCLPVCGKPVNPVEQRQQIIGGQKAKMGNFPWQVFTNIHGRGGGALLGDRWILTAAHTLYPKEHEAQSNASLDVFLGHTNVEELMKLGNHPIRRVSVHPDYRQDESYNFEGDIALLELENSVTLGPNLLPICLPDNDTFYDLGLMGYVSGFGVMEEKIAHDLRFVRLPVANPQACENWLRGKNRMDVFSQNMFCAGHPSLKQDACQGDAGGVFAVRDPNTDRWVATGIVSWGIGCSRGYGFYTKVLNYVDWIKKEMEEED
notes: C1s and C1r co-expressed in HEK293/FreeStyle 293-F and purified from conditioned medium

Tests used:
[1] = target: B5; assay: SPR (BIACORE T200), 37 C, ratio of KD at pH 5.8 to KD at pH 7.4
Method: (§1) KD (dissociation constant) value of each samples at pH 7.4 and pH 5.8 are determined at 37 degrees C. using BIACORE® T200 instrument (GE Healthcare). Purified Mouse Anti-Human Ig kappa Light Chain (GE Healthcare) can be immobilized onto all flow cells of a CMS sensor chip using an amine coupling kit (GE Healthcare). 20 mM ACES, 150 mM NaCl, 1.2 mM CaCl2, 1 mg/mL BSA (IgG-free), 1 mg/mL CMD, 0.05% Tween® 20, 0.005% NaN3, pH 7.4 or pH 5.8 buffer were used as running buffer. Each antibody can be captured onto the sensor surface by Anti-Human Ig kappa Light chain. Antibody capture levels are aimed at 50 resonance unit (RU). […] Sensor surface is regenerated each cycle with, e.g., Glycine pH 2.0 (GE Healthcare). KD values were obtained using BIACORE® T200 Evaluation software, version 2.0 (GE Healthcare).

[2] = target: B5; assay: SPR (BIACORE T200), 37 C, Ab captured via anti-human Ig kappa, human C1r2s2 as analyte, pH 5.8
Method: as §1

[3] = target: B5; assay: SPR (BIACORE T200), 37 C, Ab captured via anti-human Ig kappa, human C1r2s2 as analyte, pH 7.4
Method: as §1

[4] = target: B5; assay: SPR (BIACORE), antibody captured by ProL, human C1r2s2 injected at 100 nM, pH 7.4, 37 C; y axis Response/Capture
Method: Analysis of interaction between antibody variants and the human C1r2s2 prepared as mentioned above was carried out at pH7.4, at 37 degrees C. using BIACORE® T200 instrument (GE Healthcare) or BIACORE® 4000 (GE Healthcare). ProL (BioVision) was immobilized onto a CM4 sensorchip using amine coupling kit (GE Healthcare) according to the recommended settings by GE Healthcare. Antibodies and analytes were diluted into the respective running buffers, ACES pH7.4 (20 mM ACES (N-(2-Acetamido)-2-aminoethanesulfonic acid), 150 mM NaCl, 1.2 mM CaCl2, 1 mg/ml bovine serum albumin (BSA), 1 mg/ml CMD (CM-Dextran sodium salt), 0.05% Tween® 20 (polysorbate 20), 0.005 w/v % NaN3). Each antibody was captured onto the sensor surface by ProL. Antibody capture levels were aimed at 200 resonance units (RU). Then, recombinant human C1r2s2 was injected at concentrations of 25 and 100 nM followed by dissociation at pH7.4. The surface was regenerated using 10 mM Glycine-HCl, pH1.5.

[5] = target: T1, native human C1q (CompTech) (human, UniProt P02745 23-245; P02746 28-253; P02747 29-245); assay: SPR (BIACORE T200), human C1r2s2 captured by immobilised IPN009VH2Vk3-SG1148, native human C1q injected at about 100 nM, pH 7.4, 37 C
T1 construct: the subunit make-up A/B/C is from general knowledge
T1 sequence (P02745 23-245 limits assumed, chain 1 of 3): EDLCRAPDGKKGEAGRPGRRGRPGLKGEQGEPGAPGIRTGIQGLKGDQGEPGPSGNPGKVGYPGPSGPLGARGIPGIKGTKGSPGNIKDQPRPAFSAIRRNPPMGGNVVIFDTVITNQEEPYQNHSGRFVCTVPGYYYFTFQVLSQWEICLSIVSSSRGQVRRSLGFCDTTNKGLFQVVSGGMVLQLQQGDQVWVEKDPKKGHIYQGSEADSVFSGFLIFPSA
T1 sequence (P02746 28-253 limits assumed, chain 2 of 3): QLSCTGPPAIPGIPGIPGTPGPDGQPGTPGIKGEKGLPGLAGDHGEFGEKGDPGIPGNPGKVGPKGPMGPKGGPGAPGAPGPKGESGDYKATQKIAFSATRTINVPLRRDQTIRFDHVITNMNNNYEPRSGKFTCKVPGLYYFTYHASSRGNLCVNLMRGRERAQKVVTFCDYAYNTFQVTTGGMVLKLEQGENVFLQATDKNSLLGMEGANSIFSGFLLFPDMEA
T1 sequence (P02747 29-245 limits assumed, chain 3 of 3): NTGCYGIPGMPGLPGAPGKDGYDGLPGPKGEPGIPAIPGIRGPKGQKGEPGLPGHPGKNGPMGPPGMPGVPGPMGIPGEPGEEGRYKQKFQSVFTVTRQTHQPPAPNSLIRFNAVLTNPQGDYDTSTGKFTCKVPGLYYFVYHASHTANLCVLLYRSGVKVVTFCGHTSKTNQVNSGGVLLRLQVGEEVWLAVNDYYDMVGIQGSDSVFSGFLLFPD
Source text: Recombinant human C1r2s2 tetramer was first captured onto the sensor surface by the anti-C1r2s2 antibody. The capture levels were aimed at 200 resonance unit (RU). […] The sensor surface was regenerated each cycle with 3 M MgCl2. Sensorgrams were obtained using BIACORE® T200 Evaluation software, version 2.0 (GE Healthcare). […] For comparison of these sensorgrams, binging response of C1r2s2 was normalized as 100 RU. […] For comparison of these sensorgrams, baseline (before injecting antibodies) was adjusted to 0 RU.

binding result [4]: binds
B2: AL0737 (antibody, human IgG1, kappa, V domains shown)
VH: QVQLVESGGGVVQPGRSLRLSCAASGFTFSAYAMNWIRQPPGKGLEWIGLIYGSGSTFYASWAKGRVTISVDTSKNQFSLKLSSVTAADTAVYYCARGRSVNYNSDFHLWGQGTLVTVSS
VL: DIQMTQSPSSLSASVGDRVTITCQASQSLHDKKNLAWYQQKPGQPPKLLIYGASTLESGVPSRFSGSGSGTDFTLTISSLQPEDFATYYCQGEFSWSSADLNTFGQGTKVEIKR
notes: COS0637temp with VL C94W/C95dL (Kabat), already in the VL entry

binding result [4]: binds
B3: AL0743 (antibody, human IgG1, kappa, V domains shown)
VH: QVQLVESGGGVVQPGRSLRLSCAASGFTFSAYAMNWIRQPPGKGLEWIGLIYGSGSTFYASWAKGRVTISVDTSKNQFSLKLSSVTAADTAVYYCARGRSVNYNSDFHLWGQGTLVTVSS
VL: DIQMTQSPSSLSASVGDRVTITCQASQSLHDKKNLAWYQQKPGQPPKLLIYGASTLESGVPSRFSGSGSGTDFTLTISSLQPEDFATYYCQGEFSYSSADLNTFGQGTKVEIKR
notes: COS0637temp with VL C94Y/C95dL (Kabat), already in the VL entry; template for further optimization

binding result [4]: binds
B4: AL0744 (antibody, human IgG1, kappa, V domains shown)
VH: QVQLVESGGGVVQPGRSLRLSCAASGFTFSAYAMNWIRQPPGKGLEWIGLIYGSGSTFYASWAKGRVTISVDTSKNQFSLKLSSVTAADTAVYYCARGRSVNYNSDFHLWGQGTLVTVSS
VL: DIQMTQSPSSLSASVGDRVTITCQASQSLHDKKNLAWYQQKPGQPPKLLIYGASTLESGVPSRFSGSGSGTDFTLTISSLQPEDFATYYCQGEFSWSSADMNTFGQGTKVEIKR
notes: COS0637temp with VL C94W/C95dM (Kabat), already in the VL entry

The remaining lines, values behind:

B1: COS0637temp-TT91R (antibody)
heavy: QVQLVESGGGVVQPGRSLRLSCAASGFTFSAYAMNWIRQPPGKGLEWIGLIYGSGSTFYASWAKGRVTISVDTSKNQFSLKLSSVTAADTAVYYCARGRSVNYNSDFHLWGQGTLVTVSSASTKGPSVFPLAPSSKSTSGGTAALGCLVKDYFPEPVTVSWNSGALTSGVHTFPAVLQSSGLYSLSSVVTVPSSSLGTQTYICNVNHKPSNTKVDKRVEPKSCDKTHTCPPCPAPEYLGGDSVFLFPPKPKDVLMISRTPEVTCVVIDVSHEDPEVKFNWYVDGVEVHNAKTKPREEQYNSTYRVVSVLPVLHRDWLNGKEYKCKVSNKALPKPIEKTISKAKGQRREPQVYTLPPSREEMTKNQVSLTCLVKGFYPSDIAVEWESNGQPENNYKTTPPVLDSDGSFFLYSKLTVDKSRWQQGNVFSCSVLHEALHAHTTRKELSLSP
light: DIQMTQSPSSLSASVGDRVTITCQASQSLHDKKNLAWYQQKPGQPPKLLIYGASTLESGVPSRFSGSGSGTDFTLTISSLQPEDFATYYCQGEFSCSSADCNTFGQGTKVEIKRTVAAPSVFIFPPSDEQLKSGTASVVCLLNNFYPREAKVQWKVDNALQSGNSQESVTEQDSKDSTYSLSSTLTLSKADYEKHKVYACEVTHQGLSSPVTKSFNRGEC
notes: COS0637h with K101H in HCDR3; CH TT91R, CL SK1
KD (pH 5.8)/KD (pH 7.4) [1]: 116
Kd [2]: 6.39 µM
Kd [3]: 0.055 µM

Binder: B5
binding result [5]: binds
